Substitutions are numbered along the chain they refer to.
T1: ADF-1 (D. funebris) (Drosophila funebris, UniProt E2DD98 1-262)
T1 sequence: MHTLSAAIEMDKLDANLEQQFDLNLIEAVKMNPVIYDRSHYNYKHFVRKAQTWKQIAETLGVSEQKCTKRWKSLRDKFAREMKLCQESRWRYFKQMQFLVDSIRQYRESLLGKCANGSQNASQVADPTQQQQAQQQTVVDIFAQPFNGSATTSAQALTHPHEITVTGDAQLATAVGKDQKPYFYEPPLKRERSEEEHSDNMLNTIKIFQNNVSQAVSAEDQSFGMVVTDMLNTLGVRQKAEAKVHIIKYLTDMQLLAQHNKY

T2: ADF-1 (D. melanogaster) (Drosophila melanogaster, UniProt P05552 1-262)
T2 sequence: T1 sequence with S5T, M31L, S63P, N120S, S122N, T128S, G167S

B1: Oligo 1 (dsDNA)
DNA 1: ATCGACGTCGGCGTCGACATCGTGA
DNA 2: TCACGATGTCGACGCCGACGTCGAT
B2: Oligo 3 (dsDNA)
DNA 1: TCAATGTCGCCGTCGCTGTCTCAGTCG
DNA 2: CGACTGAGACAGCGACGGCGACATTGA
B3: Oligo 4 (dsDNA)
DNA 1: TCGCTGTCTCAGTCGACGCTATTGAT
DNA 2: ATCAATAGCGTCGACTGAGACAGCGA
B4: Oligo 2 (dsDNA)
DNA 1: ATCGACGTCAACGGCAGCGTTCACAT
DNA 2: ATGTGAACGCTGCCGTTGACGTCGAT

These binders were tested against T1, ADF-1 (D. funebris) (assay: EMSA).

Binder | Kd [µM]
B1 | 1.95
B2 | 28.3
B3 | 1.86
B4 | 5.05

The binders below were run against T2, ADF-1 (D. melanogaster) (assay: EMSA).

Binder | Kd [µM]
B1 | 1.98
B2 | 27.5
B3 | 1.63
B4 | 4.07

Reference: article PMC2965233
